Patent US20060281673A1, “Novel peptide inhibitor of hiv fusion that disrupts the internal trimeric coiled-coil of gp41” (priority 2003, published 2006)

Key:
[1] = biological target: N36^Mut(e,g); assay: cell-based or functional assay
[2] = biological target: pre-hairpin intermediate of gp41 (HIV-1 Env on effector cells) (HIV-1), P03377; assay: cell-based or functional assay

Row | Binder | α: factor relating the homotrimerization association constant of L to Kref^trimer, fitted to the fusion inhibition data at λMT=1.5×10^-4 M [1] | α: factor relating the homotrimerization association constant of L to Kref^trimer, fitted to the fusion inhibition data at λMT=1.5×10^-5 M [1] | IC50, inhibition of HIV Env-mediated cell fusion (vaccinia virus-based reporter gene assay) [2] [nM] | fold activity in inhibiting fusion relative to N36 [2] [fold] | β: factor relating the heterotrimerization association constant of M and L to Kref^trimer, fitted to the fusion inhibition data at λMT=1.5×10^-4 M [2] | β: factor relating the heterotrimerization association constant of M and L to Kref^trimer, fitted to the fusion inhibition data at λMT=1.5×10^-5 M [2] | inhibition of HIV Env-mediated cell fusion (vaccinia virus-based reporter gene assay) [2] [mM]
1 | SGIDQEQNNLTRLIEAQIHELQLTQWKIKQLLARIL (modifications not checked) [N36^Mut(e,g)] | 0.34 | 1.07 | 308 | 50 | 5.76 | 2.97 | 
2 | SGIVQQLNNQLRAEEANQHLEQLSVWGSKQNQARRL (modifications not checked) [N36^Mut(a,d)] |  |  |  |  |  |  | > 0.1
